Biological target: TcdA^(1–542 D285/287N)-EGFP (Clostridium difficile (strain VPI 10463), UniProt P16154 1-542)
Assay: MST
Settings: both partners purified

B1: isolated TcdA CROPs (TcdA^1875–2710) (domain or fragment)
chain: YKIINGKHFYFNNDGVMQLGVFKGPDGFEYFAPANTQNNNIEGQAIVYQSKFLTLNGKKYYFDNNSKAVTGWRIINNEKYYFNPNNAIAAVGLQVIDNNKYYFNPDTAIISKGWQTVNGSRYYFDTDTAIAFNGYKTIDGKHFYFDSDCVVKIGVFSTSNGFEYFAPANTYNNNIEGQAIVYQSKFLTLNGKKYYFDNNSKAVTGLQTIDSKKYYFNTNTAEAATGWQTIDGKKYYFNTNTAEAATGWQTIDGKKYYFNTNTAIASTGYTIINGKHFYFNTDGIMQIGVFKGPNGFEYFAPANTDANNIEGQAILYQNEFLTLNGKKYYFGSDSKAVTGWRIINNKKYYFNPNNAIAAIHLCTINNDKYYFSYDGILQNGYITIERNNFYFDANNESKMVTGVFKGPNGFEYFAPANTHNNNIEGQAIVYQNKFLTLNGKKYYFDNDSKAVTGWQTIDGKKYYFNLNTAEAATGWQTIDGKKYYFNLNTAEAATGWQTIDGKKYYFNTNTFIASTGYTSINGKHFYFNTDGIMQIGVFKGPNGFEYFAPANTDANNIEGQAILYQNKFLTLNGKKYYFGSDSKAVTGLRTIDGKKYYFNTNTAVAVTGWQTINGKKYYFNTNTSIASTGYTIISGKHFYFNTDGIMQIGVFKGPDGFEYFAPANTDANNIEGQAIRYQNRFLYLHDNIYYFGNNSKAATGWVTIDGNRYYFEPNTAMGANGYKTIDNKNFYFRNGLPQIGVFKGSNGFEYFAPANTDANNIEGQAIRYQNRFLHLLGKIYYFGNNSKAVTGWQTINGKVYYFMPDTAMAAAGGLFEIDGVIYFFGVDGVKAPGIYG
How did the Kd turn out when B1 was run?
Its Kd is 2960 ± 180 nM.

Reference: paper PMC4113749 (Toxins, 2014)
